Measured values taken from PMC6901265 (2019).

Experiments:
[1] = molecular target: T1, EBV BRLF1 peptide on HLA-A*02:01 (human); assay: multimer staining
T1 peptide: YVLDHLIVV

[2] = molecular target: T2, tyrosinase peptide on HLA-A*02:01 (human); assay: activation reporter or marker
T2 peptide: YMDGTMSQV

B1: WT TCR AV8.1-CAVKDTDKLIF-AJ34 BV24.1-CATSDWDDSTGELFF-BJ2.2 (TCR)
alpha AV8.1 AJ34 CDR3: CAVKDTDKLIF
beta BV24.1 BJ2.2 CDR3: CATSDWDDSTGELFF
Question: Which results are given for B1?
Answer: binding result [1]: recognises; binding result [2]: no recognition
